Reference: patent US20110158938A1

Target: IL-15Rα expressed by TF-1 cells (human) (UniProt Q13261)
Assay: cell-based or functional assay

Sequence of UniProt Q13261 (Q13261 31-267): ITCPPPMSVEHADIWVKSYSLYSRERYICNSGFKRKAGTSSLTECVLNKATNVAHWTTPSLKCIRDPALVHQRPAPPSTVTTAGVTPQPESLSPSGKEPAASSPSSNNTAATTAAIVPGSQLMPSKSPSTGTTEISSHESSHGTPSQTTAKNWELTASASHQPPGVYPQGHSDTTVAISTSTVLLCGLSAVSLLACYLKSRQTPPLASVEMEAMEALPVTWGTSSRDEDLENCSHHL

Row | Substance | EC50 (pM), TF-1β proliferation | Maximal induction (% WT), TF-1β proliferation | Relative activity (% WT), TF-1β proliferation
1 | FLAG-IL-15 L44D (from UniProt P40933 49-162) (ligand) | > 20 pM | 0 % WT | < 30 % WT
2 | FLAG-IL-15 L47D (from UniProt P40933 49-162) (ligand) | > 60 pM | 0 % WT | < 10 % WT
